# Laboratory results as given in article PMC12277278 (Frontiers in Immunology, 2025).
# B1: F945 IgG (recombinant human monoclonal antibody, IgG1/kappa) (antibody, V domains shown)
# VH: QVQLVESGGGVVQPGRSLRLSCAASGFSFNTYAFHWVRQGPGKGLEWVAGISFDGSKRYYADSVKGRFTVSRDNSKNTLYLQMNGLIPEDTAVYYCARDRRIVVVSAPGYWGQGTLVTVSS
# VL: DIQMTQSPSSLSASVGDRVTITCQASHDISNYLNWYQQKPGKAPKLLIFDASYLETGVPSRFSGSGSGTDFTFTINSLQSEDIATYYCQQYDTLLSFGGGTRVEIK
# Biological target: T1, recombinant DbpA from B. burgdorferi strain 297 (DbpA297) (Borrelia burgdorferi strain 297, UniProt O50917)
# T1 construct: also called recombinant DbpA297
# Test: multiplex microsphere immunoassay (MIA, Luminex); recombinant antigens coupled to MagPlex-C microspheres; diluted MAb incubated 1 h at RT; PE-labelled secondary antibody; MFI read on a FlexMap 3D
# Details: both partners purified
# T1 sequence (O50917 30-168): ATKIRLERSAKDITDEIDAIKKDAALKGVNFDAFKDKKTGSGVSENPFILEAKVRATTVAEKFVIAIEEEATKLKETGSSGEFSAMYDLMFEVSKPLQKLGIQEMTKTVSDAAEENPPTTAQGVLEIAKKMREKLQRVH
binder,measurement,value
B1,binding result,no binding
